Data: article PMC5669352

Target: native mapacalcine (Cliona vastifica) (UniProt P86916)
Assay: MALDI-MS

- stoichiometry N: 2
Substance: native mapacalcine (from UniProt P86916 1-89) (natural protein)
